# Measurements as given in patent US20210388087A1 (Chugai, published 2021).
# Changes are numbered by the printed parent chain. Names and notes keep the numbering of the source.
# T1: Human CD3eg linker (human)
# T1 construct: single-chain construct; also called recombinant human CD3
# T1 chain: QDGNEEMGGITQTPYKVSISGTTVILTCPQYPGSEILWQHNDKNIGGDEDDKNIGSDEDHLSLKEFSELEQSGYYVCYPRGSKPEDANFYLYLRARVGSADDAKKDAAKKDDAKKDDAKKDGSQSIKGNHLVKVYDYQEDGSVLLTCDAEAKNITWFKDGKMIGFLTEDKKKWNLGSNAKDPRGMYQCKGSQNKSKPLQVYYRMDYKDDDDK
# B1: dBBDu183H D101S/dBBDu072L (antibody, name in Kabat numbering, V domains shown)
# VH: QVQLVESGGGLVQPGRSLRLSCAASGFTFSNAWMHWVRQAPGKGLEWVAQIKDKGNAYAAYYAPSVKGRFTISRDDSKNSIYLQMNSLKTEDTAVYYCHYVHYASASTVLPAFGVSAWGQGTTVTVSS
# VL: DIVMTQSPLSLPVTPGEPASISCQASQELVHMNRNTYLHWYQQKPGQAPRLLIYKVSNRFPGVPDRFSGSGSGTDFTLKISRVEAEDVGVYYCAQGTSVPFTFGQGTKLEIK
# B2: dBBDu183H D101T/dBBDu072L (antibody, name in Kabat numbering, V domains shown)
# VH: B1 VH with S116T
# VL: B1 VL
# B3: dBBDu183H D101V/dBBDu072L (antibody, name in Kabat numbering, V domains shown)
# VH: B1 VH with S116V
# VL: B1 VL
# B4: dBBDu183H D101W/dBBDu072L (antibody, name in Kabat numbering, V domains shown)
# VH: B1 VH with S116W
# VL: B1 VL
# B5: dBBDu183H D101Y/dBBDu072L (antibody, name in Kabat numbering, V domains shown)
# VH: B1 VH with S116Y
# VL: B1 VL
# B6: dBBDu183H F100gD/dBBDu072L (antibody, name in Kabat numbering, V domains shown)
# VH: B1 VH with F113D, S116D
# VL: B1 VL
# B7: dBBDu183H F100gE/dBBDu072L (antibody, name in Kabat numbering, V domains shown)
# VH: B1 VH with F113E, S116D
# VL: B1 VL
# B8: dBBDu183H F100gG/dBBDu072L (antibody, name in Kabat numbering, V domains shown)
# VH: B1 VH with F113G, S116D
# VL: B1 VL
# B9: dBBDu183H F100gH/dBBDu072L (antibody, name in Kabat numbering, V domains shown)
# VH: B1 VH with F113H, S116D
# VL: B1 VL
# B10: dBBDu183H F100gK/dBBDu072L (antibody, name in Kabat numbering, V domains shown)
# VH: B1 VH with F113K, S116D
# VL: B1 VL
# B11: dBBDu183H F100gN/dBBDu072L (antibody, name in Kabat numbering, V domains shown)
# VH: B1 VH with F113N, S116D
# VL: B1 VL
# B12: dBBDu183H F100gQ/dBBDu072L (antibody, name in Kabat numbering, V domains shown)
# VH: B1 VH with F113Q, S116D
# VL: B1 VL
# B13: dBBDu183H F100gR/dBBDu072L (antibody, name in Kabat numbering, V domains shown)
# VH: B1 VH with F113R, S116D
# VL: B1 VL
# B14: dBBDu183H F100gS/dBBDu072L (antibody, name in Kabat numbering, V domains shown)
# VH: B1 VH with F113S, S116D
# VL: B1 VL
# B15: dBBDu183H F100gT/dBBDu072L (antibody, name in Kabat numbering, V domains shown)
# VH: B1 VH with F113T, S116D
# VL: B1 VL
# B16: dBBDu183H F100gV/dBBDu072L (antibody, name in Kabat numbering, V domains shown)
# VH: B1 VH with F113V, S116D
# VL: B1 VL
# B17: dBBDu183H F100gW/dBBDu072L (antibody, name in Kabat numbering, V domains shown)
# VH: B1 VH with F113W, S116D
# VL: B1 VL
# B18: dBBDu183H F100gY/dBBDu072L (antibody, name in Kabat numbering, V domains shown)
# VH: B1 VH with F113Y, S116D
# VL: B1 VL
# B19: dBBDu183H G65D/dBBDu072L (antibody, name in Kabat numbering, V domains shown)
# VH: B1 VH with G68D, S116D
# VL: B1 VL
# B20: dBBDu183H G65E/dBBDu072L (antibody, name in Kabat numbering, V domains shown)
# VH: B1 VH with G68E, S116D
# VL: B1 VL
# B21: dBBDu183H G65F/dBBDu072L (antibody, name in Kabat numbering, V domains shown)
# VH: B1 VH with G68F, S116D
# VL: B1 VL
# B22: dBBDu183H G65H/dBBDu072L (antibody, name in Kabat numbering, V domains shown)
# VH: B1 VH with G68H, S116D
# VL: B1 VL
# B23: dBBDu183H G65K/dBBDu072L (antibody, name in Kabat numbering, V domains shown)
# VH: B1 VH with G68K, S116D
# VL: B1 VL
# B24: dBBDu183H G65N/dBBDu072L (antibody, name in Kabat numbering, V domains shown)
# VH: B1 VH with G68N, S116D
# VL: B1 VL
# B25: dBBDu183H G65Q/dBBDu072L (antibody, name in Kabat numbering, V domains shown)
# VH: B1 VH with G68Q, S116D
# VL: B1 VL
# B26: dBBDu183H G65R/dBBDu072L (antibody, name in Kabat numbering, V domains shown)
# VH: B1 VH with G68R, S116D
# VL: B1 VL
# B27: dBBDu183H G65S/dBBDu072L (antibody, name in Kabat numbering, V domains shown)
# VH: B1 VH with G68S, S116D
# VL: B1 VL
# B28: dBBDu183H G65T/dBBDu072L (antibody, name in Kabat numbering, V domains shown)
# VH: B1 VH with G68T, S116D
# VL: B1 VL
# B29: dBBDu183H G65V/dBBDu072L (antibody, name in Kabat numbering, V domains shown)
# VH: B1 VH with G68V, S116D
# VL: B1 VL
# B30: dBBDu183H G65W/dBBDu072L (antibody, name in Kabat numbering, V domains shown)
# VH: B1 VH with G68W, S116D
# VL: B1 VL
# B31: dBBDu183H G65Y/dBBDu072L (antibody, name in Kabat numbering, V domains shown)
# VH: B1 VH with G68Y, S116D
# VL: B1 VL
# B32: dBBDu183H G100hD/dBBDu072L (antibody, name in Kabat numbering, V domains shown)
# VH: B1 VH with G114D, S116D
# VL: B1 VL
# B33: dBBDu183H G100hE/dBBDu072L (antibody, name in Kabat numbering, V domains shown)
# VH: B1 VH with G114E, S116D
# VL: B1 VL
# B34: dBBDu183H G100hF/dBBDu072L (antibody, name in Kabat numbering, V domains shown)
# VH: B1 VH with G114F, S116D
# VL: B1 VL
# B35: dBBDu183H G100hH/dBBDu072L (antibody, name in Kabat numbering, V domains shown)
# VH: B1 VH with G114H, S116D
# VL: B1 VL
# B36: dBBDu183H G100hK/dBBDu072L (antibody, name in Kabat numbering, V domains shown)
# VH: B1 VH with G114K, S116D
# VL: B1 VL
# B37: dBBDu183H G100hN/dBBDu072L (antibody, name in Kabat numbering, V domains shown)
# VH: B1 VH with G114N, S116D
# VL: B1 VL
# B38: dBBDu183H G100hQ/dBBDu072L (antibody, name in Kabat numbering, V domains shown)
# VH: B1 VH with G114Q, S116D
# VL: B1 VL
# B39: dBBDu183H G100hR/dBBDu072L (antibody, name in Kabat numbering, V domains shown)
# VH: B1 VH with G114R, S116D
# VL: B1 VL
# B40: dBBDu183H G100hS/dBBDu072L (antibody, name in Kabat numbering, V domains shown)
# VH: B1 VH with G114S, S116D
# VL: B1 VL
# B41: dBBDu183H G100hT/dBBDu072L (antibody, name in Kabat numbering, V domains shown)
# VH: B1 VH with G114T, S116D
# VL: B1 VL
# B42: dBBDu183H G100hV/dBBDu072L (antibody, name in Kabat numbering, V domains shown)
# VH: B1 VH with G114V, S116D
# VL: B1 VL
# B43: dBBDu183H G100hW/dBBDu072L (antibody, name in Kabat numbering, V domains shown)
# VH: B1 VH with G114W, S116D
# VL: B1 VL
# B44: dBBDu183H G100hY/dBBDu072L (antibody, name in Kabat numbering, V domains shown)
# VH: B1 VH with G114Y, S116D
# VL: B1 VL
# B45: dBBDu183H H93D/dBBDu072L (antibody, name in Kabat numbering, V domains shown)
# VH: B1 VH with H99D, S116D
# VL: B1 VL
# Target: T1, Human CD3eg linker
# Experiment: SPR, vs unmutated H183/L072
row,Binder,fold change of affinity [fold]
1,B1,0.6
2,B2,0.2
3,B3,0.5
4,B4,0
5,B5,0
6,B6,0.3
7,B7,0.5
8,B8,1.2
9,B9,1.8
10,B10,1.7
11,B11,0.9
12,B12,1.3
13,B13,3.4
14,B14,1.4
15,B15,1.3
16,B16,1.2
17,B17,0.9
18,B18,1.2
19,B19,1
20,B20,1
21,B21,0.9
22,B22,0.9
23,B23,1.1

row,Binder,fold change of affinity [fold]
1,B24,0.9
2,B25,1
3,B26,1
4,B27,1
5,B28,1
6,B29,1.2
7,B30,1
8,B31,1
9,B32,0.5
10,B33,0.5
11,B34,0.4
12,B35,1.5
13,B36,0.3
14,B37,0.8
15,B38,0.4
16,B39,0.4
17,B40,1.1
18,B41,2.3
19,B42,3.4
20,B43,0
21,B44,0
22,B45,0
